Experimental data taken from article PMC9513256.
Primed or numbered codes have the meaning given here. Where no end group is shown, it is not given here. PEG2′ = not defined here

Biological target: Hedgehog acyltransferase (Hhat), triple tagged (HA-FLAG-His) WT (UniProt Q5VTY9)
Sequence of UniProt Q5VTY9 (Q5VTY9 whole entry): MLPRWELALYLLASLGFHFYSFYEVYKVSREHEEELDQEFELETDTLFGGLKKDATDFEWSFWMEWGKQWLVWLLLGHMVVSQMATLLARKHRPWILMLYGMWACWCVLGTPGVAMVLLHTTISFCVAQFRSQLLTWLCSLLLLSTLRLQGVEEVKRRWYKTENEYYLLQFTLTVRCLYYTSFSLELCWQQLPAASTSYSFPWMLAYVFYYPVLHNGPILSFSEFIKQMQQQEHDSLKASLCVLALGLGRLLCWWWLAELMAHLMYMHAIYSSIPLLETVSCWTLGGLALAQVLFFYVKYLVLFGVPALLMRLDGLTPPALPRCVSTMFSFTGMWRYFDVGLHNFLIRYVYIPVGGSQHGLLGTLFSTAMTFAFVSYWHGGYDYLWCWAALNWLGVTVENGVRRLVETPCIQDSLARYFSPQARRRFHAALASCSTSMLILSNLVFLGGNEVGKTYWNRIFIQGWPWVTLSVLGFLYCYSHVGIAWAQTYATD

B1: biotinylated WT Shh peptide, …-(PEG2)-K(Biotin)-NH2 (peptide)
peptide: CGPGRGFGKR-{PEG2′-K(Biotin)-NH2}
  apparent Km for Shh peptide, Hhat-mediated NBD-fatty acylation of Shh peptide (initial rates, 10 min, 37 °C), Shh titrated in the presence of 25 μM NBD-myristoyl-CoA (14:0): 10.7 μM Shh
  apparent Km for Shh peptide, Hhat-mediated NBD-fatty acylation of Shh peptide (initial rates, 10 min, 37 °C), Shh titrated in the presence of 25 μM NBD-oleoyl-CoA (18:1): 19.7 μM Shh
  apparent Km for Shh peptide, Hhat-mediated NBD-fatty acylation of Shh peptide (initial rates, 10 min, 37 °C), Shh titrated in the presence of 25 μM NBD-palmitoleoyl-CoA (16:1): 5 μM Shh
  apparent Km for Shh peptide, Hhat-mediated NBD-fatty acylation of Shh peptide (initial rates, 10 min, 37 °C), Shh titrated in the presence of 25 μM NBD-palmitoyl-CoA (16:0): 10.4 μM Shh
